Numbering of substitutions follows the chain as printed.
T1: human B7-H3 protein (Acrobiosystem), hB7-H3 hFc (human, UniProt Q5ZPR3-2 29-245, limits assumed)
T1 construct: Bought; not shown: human Fc
T1 sequence (looked up): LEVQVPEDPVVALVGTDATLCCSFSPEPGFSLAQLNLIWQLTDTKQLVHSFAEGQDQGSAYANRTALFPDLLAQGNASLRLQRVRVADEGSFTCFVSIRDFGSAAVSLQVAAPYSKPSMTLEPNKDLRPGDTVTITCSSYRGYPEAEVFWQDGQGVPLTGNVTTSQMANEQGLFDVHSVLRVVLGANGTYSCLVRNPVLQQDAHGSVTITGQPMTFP

T2: human PD-L2 protein (Acrobiosystem), hPD-L2 hFc (human, UniProt Q9BQ51 20-219, limits assumed)
T2 construct: Bought; also called B7-DC; not shown: human Fc
T2 sequence (looked up): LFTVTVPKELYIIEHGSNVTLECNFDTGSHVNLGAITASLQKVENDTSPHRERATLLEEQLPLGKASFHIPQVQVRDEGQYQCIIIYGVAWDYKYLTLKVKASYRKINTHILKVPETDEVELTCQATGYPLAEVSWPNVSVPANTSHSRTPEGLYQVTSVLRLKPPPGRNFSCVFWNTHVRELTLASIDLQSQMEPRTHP

T3: human ICOSLG protein (Acrobiosystem), hICOSLGhFc (human, UniProt O75144 19-258, limits assumed)
T3 construct: Bought; also called B7-H2; not shown: human Fc
T3 sequence (looked up): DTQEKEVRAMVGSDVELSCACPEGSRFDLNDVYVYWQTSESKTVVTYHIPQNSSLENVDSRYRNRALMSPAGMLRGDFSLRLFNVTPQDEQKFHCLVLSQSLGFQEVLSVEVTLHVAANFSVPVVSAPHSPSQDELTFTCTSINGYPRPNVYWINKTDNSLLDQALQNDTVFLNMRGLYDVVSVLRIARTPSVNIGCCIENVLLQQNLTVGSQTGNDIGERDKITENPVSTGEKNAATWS

T4: human CD86 protein (Acrobiosystem), hCD86 hFc (human, UniProt P42081 26-247, limits assumed)
T4 construct: Bought; also called B7-2; not shown: human Fc
T4 sequence (looked up): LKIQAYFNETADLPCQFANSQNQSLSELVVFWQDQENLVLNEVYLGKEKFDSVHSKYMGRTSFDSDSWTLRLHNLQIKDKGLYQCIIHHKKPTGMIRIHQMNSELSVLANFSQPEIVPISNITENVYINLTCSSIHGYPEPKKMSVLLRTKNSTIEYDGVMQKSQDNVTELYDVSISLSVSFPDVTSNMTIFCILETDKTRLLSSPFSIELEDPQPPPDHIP

B1: F016-21 (antibody, V domains shown)
VH: EVQLQQSGPELVKPGASVKMSCKASGYTFTDYVMHWVKQKPGQGLEWIGYINPYNDGTKFNEKFKGKATLTSDKSSSTAYMELSSLTSEDSAVYYCAKQTLDYWGQGTSVTVSS
VL: DIVLTQSPASLAVSLGQRATISCRASESVEYFGTTLMQWYQQRPGQPPKLLIYAASNVESGVPARFSGSGSGTDFSLNIHPVEEDDIAMYFCQQSRKVPYTFGGGTKLEIKR
notes: Mouse hybridoma monoclonal antibody purified from clone supernatant; also called anti-human PD-L1 antibody F016-21
B2: F016-193 (antibody, V domains shown)
VH: B1 VH with D31S, Y54H, T58N, F60Y, T78S, L101M
VL: B1 VL with I21L, Y31F, F32Y, Y40F, R43K
notes: Mouse hybridoma monoclonal antibody; also called anti-human PD-L1 antibody F016-193
B3: F016-568 (antibody, V domains shown)
VH: QLQESGPSLVKPSQTLSLTCSVTGDSITSDYWNWIRKFPGNKLEYMGYISYTGSTYYNPSLKSRISITRDTSKNQYYLQLNSVTTEDTATYYCAKQGGWLNAMDYWGQGTSVTVSS
VL: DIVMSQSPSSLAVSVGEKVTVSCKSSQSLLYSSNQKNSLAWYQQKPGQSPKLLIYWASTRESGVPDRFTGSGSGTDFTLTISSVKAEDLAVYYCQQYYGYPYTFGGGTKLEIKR
notes: Mouse hybridoma monoclonal antibody; also called anti-human PD-L1 antibody F016-568
B4: F016-870 (antibody, V domains shown)
VH: EVQLQESGPSLVKPSQTLSLTCSVTGDSITSGYWNWIRKFPGNKLEYMGYISYTGSTYQNPSLKSRISFTRDTSKNQYYLQLSSVTTEDTATYYCARSRAWIRTYFDYWGQGTTLTVSS
VL: EIVLTQSPALMAASPGEKVTITCSVSSSISSSNLHWYQQKSETSPKPWIYGTSNLASGVPVRFSGSGSGTSYSLTISSMEAEDAATYYCQQWSSYPLTFGAGTKLELKR
notes: Mouse hybridoma monoclonal antibody; also called anti-human PD-L1 antibody F016-870

Biological target: T1, human B7-H3 protein (Acrobiosystem), …
Test: ELISA on coated hB7-H3 hFc
Description: (§1) Supernatant was discarded; a blocking solution (1×PBS+1% BSA) was added in 200 μL/well; and blocking was performed for 1 h at 37° C. […] Washing was performed for 3 times with the 1×PBS. HRP-labeled goat anti-mouse IgG (sigma A0168-1ML) was added in 100 μL/well; incubation was performed for 30 min at 37° C. in a standing manner; and after washing was performed for 3 times with the 1×PBS, a color reaction was performed.

| Binder | binding result |
| --- | --- |
| B1 | no binding (tested: 10 µg/mL) |
| B2 | no binding (tested: 10 µg/mL) |
| B3 | no binding (tested: 10 µg/mL) |
| B4 | no binding (tested: 10 µg/mL) |

Biological target: T5, human PD-L1 extracellular domain recombinant protein hPD-L1-his (human, UniProt Q9NZQ7 19-238)
T5 construct: extracellular domain; Home-made; also called human PD-L1 recombinant protein; not shown: his label
Test: BLI (ForteBIO QKe), hPD-L1-his captured on an anti-Penta-HIS sensor, antibody in solution
Description: An experimental method included the following.
An equilibration buffer (1×PBS+0.02% Tween20) was used to dilute a home-made human PD-L1 extracellular domain recombinant protein hPD-L1-his carrying a his label, until a final concentration reached 5 μg/mL. […] The whole reaction was undergone at 25° C. and 1000 rpm.

T5 sequence (Q9NZQ7 19-238): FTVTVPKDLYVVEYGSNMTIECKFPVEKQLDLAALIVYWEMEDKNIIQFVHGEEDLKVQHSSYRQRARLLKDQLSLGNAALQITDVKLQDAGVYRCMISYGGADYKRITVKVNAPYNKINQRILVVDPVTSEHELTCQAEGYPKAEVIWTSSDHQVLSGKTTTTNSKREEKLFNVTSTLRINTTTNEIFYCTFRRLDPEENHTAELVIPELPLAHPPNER

| Binder | Kd |
| --- | --- |
| B1 | 0.0566 nM |
| B2 | 0.0098 nM |
| B3 | 0.101 nM |
| B4 | 0.0742 nM |

Biological target: T2, human PD-L2 protein (Acrobiosystem), …
Test: ELISA on coated hPD-L2 hFc
Description: as §1

| Binder | binding result |
| --- | --- |
| B1 | no binding (tested: 10 µg/mL) |
| B3 | no binding (tested: 10 µg/mL) |
| B4 | no binding (tested: 10 µg/mL) |

Biological target: T3, human ICOSLG protein (Acrobiosystem), …
Test: ELISA on coated hICOSLG hFc
Description: as §1

| Binder | binding result |
| --- | --- |
| B1 | no binding (tested: 10 µg/mL) |
| B3 | no binding (tested: 10 µg/mL) |
| B4 | no binding (tested: 10 µg/mL) |

Biological target: T3, human ICOSLG protein (Acrobiosystem), …
Test: ELISA on coated hFc fusion protein
Description: as §1

| Binder | binding result |
| --- | --- |
| B2 | no binding (tested: 10 µg/mL) |

Biological target: T2, human PD-L2 protein (Acrobiosystem), …
Test: ELISA on coated hFc fusion protein
Description: as §1

| Binder | binding result |
| --- | --- |
| B2 | no binding (tested: 10 µg/mL) |

Biological target: T6, human CD28 protein (Acrobiosystem), hCD28 hFc (human, UniProt P10747 19-152)
T6 construct: Bought; not shown: human Fc
Test: ELISA on coated hCD28 hFc
Description: as §1

| Binder | binding result |
| --- | --- |
| B1 | no binding (tested: 10 µg/mL) |
| B2 | no binding (tested: 10 µg/mL) |
| B3 | no binding (tested: 10 µg/mL) |
| B4 | no binding (tested: 10 µg/mL) |

Biological target: T7, human PD-L1 full-length protein on CHO-hPD-L1 stable cells (human, UniProt Q9NZQ7 19-290)
T7 construct: also called membrane protein PD-L1
Test: flow cytometry blocking assay (method 1): antibody titrated on CHO-hPD-L1 cells; blocked ligand recombinant human PD-1-hFc
Description: […] The 1×FCM buffer was used to resuspend the CHO-hPD-L1 cells to the cell density of 2×10E6/mL, and the cells were evenly spread in the 96-well V base plate in 100 μL/well. […] After 250×g was taken to perform centrifugation for 5 min, supernatant was discarded in a sucking manner. After washing was performed for 2 times with the 1×FCM buffer, the cells were resuspended by adding the 1×PBS in 100 μL/well; and the flow cytometer (Beckman, CytoFLEX) was used for detection.

T7 sequence (Q9NZQ7 19-290 limits assumed): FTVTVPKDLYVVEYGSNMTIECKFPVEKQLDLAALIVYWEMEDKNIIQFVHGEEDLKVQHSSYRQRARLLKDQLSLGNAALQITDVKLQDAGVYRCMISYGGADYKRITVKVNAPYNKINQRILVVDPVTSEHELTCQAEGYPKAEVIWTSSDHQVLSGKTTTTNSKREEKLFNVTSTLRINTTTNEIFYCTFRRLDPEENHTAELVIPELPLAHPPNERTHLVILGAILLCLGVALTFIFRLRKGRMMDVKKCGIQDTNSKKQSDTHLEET

| Binder | IC50 |
| --- | --- |
| B1 | 5.2 nM |
| B2 | 4.98 nM |
| B3 | 6.9 nM |
| B4 | 5.22 nM |

Biological target: T4, human CD86 protein (Acrobiosystem), …
Test: ELISA on coated hCD86 hFc
Description: as §1

| Binder | binding result |
| --- | --- |
| B1 | no binding (tested: 10 µg/mL) |
| B2 | no binding (tested: 10 µg/mL) |
| B3 | no binding (tested: 10 µg/mL) |
| B4 | no binding (tested: 10 µg/mL) |

Biological target: T8, human PD-L1 on IFNγ-stimulated A375 cells (human, UniProt Q9NZQ7 19-290)
T8 construct: whole, on cells; PD-L1 of the A375 cells themselves; also called PD-L1 membrane protein
Test: flow cytometry, antibody titration on human IFNγ-stimulated A375 cells, MFI-APC
Description: An experimental process included the following.
50 ng/mL of the human IFNγ (R&D) was used to stimulate the expression of human PD-L1 on human melanoma cells A375 (Shanghai cell bank) overnight; on the next day, 0.25% pancreatin (Gibco) was used to digest the A375 cells; after washing was performed once with DPBS, live cell density was adjusted to 2E6/mL; and the mixture was added into the 96-well V base plate in 100 μL/well. […] The mixture was added into the cells in 100 μL/well; and incubation was performed on ice for 30 min in a standing manner, then 250×g was taken to perform centrifugation for 5 min, and supernatant was discarded in a sucking manner. After washing was performed for 2 times with the 1×FCM buffer, iFluor™633GAM fluorescent secondary antibodies (ATT bioquest) diluted by the 1×FCM buffer (dilution ratio being 1:400) were added in 100 μL/well; and incubation was performed on ice for 30 min. After 250×g was taken to perform centrifugation for 5 min, supernatant was discarded in a sucking manner. After washing was performed for 2 times with the 1×FCM buffer, the cells were resuspended by adding the 1×PBS in 100 μL/well; and the flow cytometer (Beckman, CytoFLEX) was used for detection.

T8 sequence (Q9NZQ7 19-290): as the sequence (Q9NZQ7 19-290 limits assumed) above

| Binder | EC50 |
| --- | --- |
| B1 | 0.151 nM |
| B2 | 0.128 nM |
| B3 | 0.175 nM |

Biological target: macaque PD-L1 on CHO-cynoPD-L1 stable cells (macaque, UniProt Q9NZQ7 19-290 (human entry))
Test: flow cytometry, antibody titration on CHO-cynoPD-L1 cells, MFI-APC

Sequence of macaque PD-L1 on CHO-cynoPD-L1 stable cells (Q9NZQ7 other isoform, or with tags, fused parts or gaps limits assumed): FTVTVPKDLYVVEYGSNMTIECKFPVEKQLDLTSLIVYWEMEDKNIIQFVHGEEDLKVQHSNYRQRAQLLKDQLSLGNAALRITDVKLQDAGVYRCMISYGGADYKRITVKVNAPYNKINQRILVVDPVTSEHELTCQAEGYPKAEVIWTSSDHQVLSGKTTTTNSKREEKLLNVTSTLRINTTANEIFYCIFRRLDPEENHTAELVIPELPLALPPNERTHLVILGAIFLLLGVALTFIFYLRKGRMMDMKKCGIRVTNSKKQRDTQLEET

| Binder | EC50 |
| --- | --- |
| B1 | 0.947 nM |
| B3 | 1.29 nM |
| B4 | 0.949 nM |

Biological target: T7, human PD-L1 full-length protein on …
Test: flow cytometry blocking assay: antibody titrated on CHO-hPD-L1 cells; blocked ligand recombinant human CD80-hFc

| Binder | IC50 |
| --- | --- |
| B1 | 4.11 nM |
| B2 | 4.47 nM |
| B4 | 4.91 nM |

Biological target: T9, recombinant human PD-L1 protein carrying a hFc label (human, UniProt Q9NZQ7 19-238)
T9 construct: Self-produced; also called hPD-L1 hFc; PD-L1-hFc; not shown: human Fc label
Test: flow cytometry blocking assay (method 2): antibody titrated; binding of recombinant human PD-L1-hFc to PD-1 on CHO-hPD-1 cells is blocked
Description: The 1×FCM buffer was used to dilute the self-produced recombinant human PD-L1 protein carrying hFc, until the concentration reached 2 μg/mL. The 1×FCM buffer was used to resuspend the CHO-hPD-1 cells to the cell density of 2×10E6/mL, and the cells were evenly spread in the 96-well V base plate in 100 μL/well. […] After 250×g was taken to perform centrifugation for 5 min, supernatant was discarded in a sucking manner; after washing was performed once with the 1×FCM buffer, APC-labeled goat anti-mouse Fc fluorescent secondary antibodies (Biolegend) diluted by the 1×FCM buffer (dilution ratio being 1:500) were added in 100 μL/well; and incubation was performed on ice for 30 min. After 250×g was taken to perform centrifugation for 5 min, supernatant was discarded in a sucking manner. After washing was performed for 2 times with the 1×FCM buffer, the cells were resuspended by adding the 1×PBS in 100 μL/well; and the flow cytometer (Beckman, CytoFLEX) was used for detection.

T9 sequence (Q9NZQ7 19-238): as the sequence (Q9NZQ7 19-238) above

| Binder | IC50 |
| --- | --- |
| B1 | 1.18 nM |
| B2 | 0.993 nM |
| B3 | 1.69 nM |
| B4 | 1.61 nM |

Biological target: T7, human PD-L1 full-length protein on …
Test: flow cytometry, antibody titration on CHO-hPD-L1 cells, MFI-APC

| Binder | EC50 |
| --- | --- |
| B1 | 0.502 nM |
| B2 | 0.561 nM |
| B3 | 1.25 nM |
| B4 | 1.1 nM |

Biological target: T10, human CTLA-4 protein (Acrobiosystem), hCTLA-4 hFc (human, UniProt P16410 37-162, limits assumed)
T10 construct: Bought; not shown: human Fc
Test: ELISA on coated hCTLA-4 hFc
Description: as §1

T10 sequence (P16410 37-162 limits assumed): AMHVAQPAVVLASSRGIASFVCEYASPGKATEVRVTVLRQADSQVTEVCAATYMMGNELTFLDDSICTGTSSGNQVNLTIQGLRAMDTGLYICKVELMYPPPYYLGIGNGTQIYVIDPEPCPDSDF

| Binder | binding result |
| --- | --- |
| B1 | no binding (tested: 10 µg/mL) |
| B2 | no binding (tested: 10 µg/mL) |
| B3 | no binding (tested: 10 µg/mL) |
| B4 | no binding (tested: 10 µg/mL) |

From patent US20240301069A1 (GUANGDONG FAPON BIOPHARMA, published 2024)
